Measured values reported in publication doi:10.1101/2024.07.12.603331.

Target: soluble extracellular domain of human DPP4 (residues S39-P766) (human), P27487
Assay: SEC-MALS
Settings: remark: other sources report otherwise

B1: soluble extracellular domain of human DPP4 (residues S39-P766), P27487 39-766 (domain or fragment)
chain: SRKTYTLTDYLKNTYRLKLYSLRWISDHEYLYKQENNILVFNAEYGNSSVFLENSTFDEFGHSINDYSISPDGQFILLEYNYVKQWRHSYTASYDIYDLNKRQLITEERIPNNTQWVTWSPVGHKLAYVWNNDIYVKIEPNLPSYRITWTGKEDIIYNGITDWVYEEEVFSAYSALWWSPNGTFLAYAQFNDTEVPLIEYSFYSDESLQYPKTVRVPYPKAGAVNPTVKFFVVNTDSLSSVTNATSIQITAPASMLIGDHYLCDVTWATQERISLQWLRRIQNYSVMDICDYDESSGRWNCLVARQHIEMSTTGWVGRFRPSEPHFTLDGNSFYKIISNEEGYRHICYFQIDKKDCTFITKGTWEVIGIEALTSDYLYYISNEYKGMPGGRNLYKIQLSDYTKVTCLSCELNPERCQYYSVSFSKEAKYYQLRCSGPGLPLYTLHSSVNDKGLRVLEDNSALDKMLQNVQMPSKKLDFIILNETKFWYQMILPPHFDKSKKYPLLLDVYAGPCSQKADTVFRLNWATYLASTENIIVASFDGRGSGYQGDKIMHAINRRLGTFEVEDQIEAARQFSKMGFVDNKRIAIWGWSYGGYVTSMVLGSGSGVFKCGIAVAPVSRWEYYDSVYTERYMGLPTPEDNLDHYRNSTVMSRAENFKQVEYLLIHGTADDNVHFQQSAQISKALVDVGVDFQAMWYTDEDHGIASSTAHQHIYTHMSHFIKQCFSLP
stoichiometry N: 2
